Test results published in patent publication US20200164064A1 (Hoffmann-La Roche, published 2020).

Target: T1, Ac-PYY(PEG3-Dig) (N-terminal acetyl; Lys 2 side chain carries PEG3-digoxigenin (digoxigenin-3-carboxymethyl on 12-amino-4,7,10-trioxadodecanoic acid); Pqa at position 3; N-methyl-Arg at position 14; C-terminal amide)
T1 construct: also called DIG-PYY; Dig-PYY
T1 peptide: IKXRHYLNWVTRQXY
Experiment: size exclusion chromatography and SEC-MALS of the non-covalent complex
Method: After completion of the complexation reaction, the complexes were purified by size exclusion chromatography via a Superdex 200 26/60 GL column (320 ml) in 20 mM histidine, 140 mM NaCl, at pH 6.0 at a flow rate of 2.5 ml/min. […] Polypeptide and antibody were incubated for 1.5 hrs. at room temperature. The excess of polypeptide was removed by size exclusion chromatography via a Superose 6 10/300 GL column in 20 mM histidine, 140 mM NaCl, at pH 6.0 at a flow rate of 0.5 ml/min.
For SEC-MALS analysis, 100-500 μg of the respective sample was applied to a Superdex 200 10/300 GL size exclusion column with a flow rate of 0.25-0.5 ml/min with 1×PBS pH 7.4 as mobile phase. Light scattering was detected with a Wyatt miniDawn TREOS/QELS detector, the refractive index was measured with a Wyatt Optilab rEX-detector. Resulting data was analyzed using the software ASTRA (version 5.3.4.14).

B1: murine anti-digoxigenin antibody (hybridoma-derived) (antibody, mouse IgG1, V domains shown)
VH: EVQLVESGGGLVKPGGSLKLSCAVSGFTFSDYAMSWIRQTPENRLEWVASINIGATYAYYPDSVKGRFTISRDNAKNTLFLQMSSLGSEDTAMYYCARPGSPYEYDKAYYSMAYWGPGTSVTVSS
VL: DVQMTQSTSSLSASLGDRVTISCRASQDIKNYLNWYQQKPGGTVKLLIYYSSTLLSGVPSRFSGRGSGTDFSLTITNLEREDIATYFCQQSITLPPTFGGGTKLEIK
notes: also called murine hybridoma-derived antibody
binding result: binds
